Laboratory results as given in paper PMC3129624.

Substrate: NC(=O)N[C@H]1NC(=O)NC1=O
Experiment: purified protein
Type: biochemical, Klebsiella pneumoniae
Conditions: 10 mM NaCl, 10 mM HEPES, pH 7.5, 25 °C, no cofactor or metal

B1: KpHpxA (K. pneumoniae allantoin racemase) (Klebsiella pneumoniae subsp. pneumoniae MGH 78578) (protein)
chain: MSSVRIQVINPNTSLAMTETIGAAARAVAAPGTEILAVCPRAGVPSIEGHFDEAIAAVGVLEQIRAGREQGVDGHVIACFGDPGLLAARELAQGPVIGIAEAAMHMATMVATRFSIVTTLPRTLIIARHLLHQYGFHQHCAALHAIDLPVLALEDGSGLAQEKVRERCIRALKEDGSGAIVLGCGGMATLAQELTRELRVPVIDGVSAAVKMVESLVALGLATSKHGDLAFPEKKALSGQFQSLNPF
- kcat: 183 ± 17 s⁻¹
